{"source": "patent US20200024360A1", "about": "(Janssen / Centocor, published 2020)", "key": {"[1]": {"target": "T1, human PSMA (prostate specific membrane antigen), full length (human, UniProt Q04609 1-750)", "T1 construct": "On LNCaP or C4-2B cells (endogenous) or transduced HEK293F cells; also called FOLH1_HUMAN; hPSMA", "test": "flow cytometry, bispecific antibody titrated on LNCaP cells (human PSMA), anti-human kappa light chain PE", "method": "(§1) PSMA×CD3 bispecific antibodies were tested for binding to PSMA positive cell lines LNCAP, human PSMA-HEK, Chimpanzee-PSMA-HEK and Cynomolgous monkey PSMA-HEK. To assess the binding capabilities of the PSMA bispecific antibodies, the cell-binding assay was utilized (described previously). Briefly, PSMA expressing tumor cells are bound by bispecific antibodies at known concentrations and the bound antibody is detected by an anti-human kappa light chain PE conjugated detection reagent (Invitrogen). The Mean Fluorescents Intensity (MFI) is the measure of bound bispecific antibody. The MFI is converted to a relative EC₅₀. EC₅₀ is a commonly used dose-response curve, where the half maximal effective concentration or the EC₅₀ point is defined as the inflection point of the curve. EC₅₀ s were determined by measuring cell bound bispecific and known concentrations. […] The dose response curves were then diluted down to that of background or no bispecific binding. The inflection point of this curve reflects the EC₅₀ point. The calculated EC₅₀ is determined by taking the ug/ml amount of bispecific antibody at the EC₅₀ point and converting it to a molarity value based on the MW of the bispecific antibody. Bispecific antibodies were normalized for protein concentration and then incubated with the same number of cells expressing either human or cyno PSMA. The MFI at each concentration was collected by flow cytometry and plotted as a function of concentration. Data was transformed via log 10 and then plotted. Nonlinear regression of binding curves was done to determine EC₅₀ s. These relative values were used for ranking PSMA binding to target cells."}, "[2]": {"target": "T1, human PSMA (prostate specific membrane …)", "test": "flow cytometry, bispecific antibody titrated on human PSMA HEK cells, anti-human kappa light chain PE", "method": "as §1, with “The MFI at each concentration was collected by flow cytometry and plotted as a function of concentration. Data was transformed via log 10 and then plotted. Nonlinear regression of binding curves was done to determine EC₅₀ s. These relative values were used for ranking PSMA binding to target cells.” left out"}, "[3]": {"target": "T1, human PSMA (prostate specific membrane …)", "test": "flow cytometry, bispecific antibody titrated on LNCaP cells (human PSMA), anti-human kappa light chain PE", "method": "as §1, with “The MFI at each concentration was collected by flow cytometry and plotted as a function of concentration. Data was transformed via log 10 and then plotted. Nonlinear regression of binding curves was done to determine EC₅₀ s. These relative values were used for ranking PSMA binding to target cells.” left out", "remark": "listed apart in the source"}, "[4]": {"target": "T2, Cynomolgous monkey PSMA, full length (Macaca fascicularis, UniProt Q04609 1-750 (human entry))", "T2 construct": "On transfected HEK293F cells; also called cyno PSMA; EHH56646.1", "T2 chain": "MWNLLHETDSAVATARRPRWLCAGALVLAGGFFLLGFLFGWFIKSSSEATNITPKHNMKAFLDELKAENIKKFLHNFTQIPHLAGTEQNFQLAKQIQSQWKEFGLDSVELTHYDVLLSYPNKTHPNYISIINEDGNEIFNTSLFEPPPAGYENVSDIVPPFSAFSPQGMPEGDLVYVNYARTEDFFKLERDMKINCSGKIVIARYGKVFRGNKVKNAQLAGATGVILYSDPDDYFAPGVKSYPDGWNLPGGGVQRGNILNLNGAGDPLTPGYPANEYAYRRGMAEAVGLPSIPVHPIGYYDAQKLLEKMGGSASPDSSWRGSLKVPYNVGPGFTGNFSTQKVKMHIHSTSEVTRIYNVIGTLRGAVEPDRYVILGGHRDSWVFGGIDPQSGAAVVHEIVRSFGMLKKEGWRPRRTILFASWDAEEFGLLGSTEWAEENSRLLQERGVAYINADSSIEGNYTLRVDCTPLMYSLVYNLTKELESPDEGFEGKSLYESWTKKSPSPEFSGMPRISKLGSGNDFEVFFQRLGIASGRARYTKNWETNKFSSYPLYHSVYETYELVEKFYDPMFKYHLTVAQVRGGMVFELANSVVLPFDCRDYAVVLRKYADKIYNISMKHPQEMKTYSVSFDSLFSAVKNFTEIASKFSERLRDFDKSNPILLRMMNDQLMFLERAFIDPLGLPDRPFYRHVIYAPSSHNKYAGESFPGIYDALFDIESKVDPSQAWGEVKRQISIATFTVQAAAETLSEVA", "test": "flow cytometry, mammalian Fab supernatant titrated on cyno PSMA (PSMG5) HEK cells, anti-human kappa-RPE", "method": "Plates were read on a BD FACS Array flow cytometer. FACS data was analyzed in FlowJo software by live gating the healthy population of cells using forward scatter and side scatter, and then analyzing the cells within this gate for PE staining. Mean fluorescence intensity (MFI) was calculated and exported into Microsoft Excel. […] Fabs were sequenced and moved forward for cloning into mammalian expression vector for rescreening. True positives were selected from the binding of mammalian cell expressed Fab supernatants to PSMA-expressing cell lines.\nBinding profiles among hits were compared across cell lines expressing different species of PSMA."}, "[5]": {"target": "T3, cynomolgus CD3ε on primary cynomolgus CD4+ T cells (cynomolgus monkey, UniProt Q95LI5 22-198)", "T3 construct": "whole, on cells", "T3 sequence (Q95LI5 22-198)": "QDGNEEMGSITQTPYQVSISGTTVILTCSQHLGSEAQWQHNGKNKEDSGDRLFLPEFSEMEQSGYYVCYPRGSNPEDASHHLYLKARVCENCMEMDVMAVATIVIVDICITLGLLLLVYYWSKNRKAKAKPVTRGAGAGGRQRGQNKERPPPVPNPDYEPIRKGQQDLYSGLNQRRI", "test": "FACS, primary cynomolgus CD4+ T cells"}}}
{"binder": "PS3B7 (M59) (bispecific antibody, human IgG4 S228P, kappa, lambda, F234A L235A, also called PSMB87 x CD3B217) heavy chain, PSMA arm (PSMB87, Fab PSMB58): not shown light chain, PSMA arm (PSMB87, Fab PSMB58): not shown heavy chain, CD3 arm (CD3B217): EVQLLESGGGLVQPGGSLRLSCAASGFTFNTYAMNWVRQAPGKGLEWVARIRSKYNNYATYYADSVKGRFTISRDNSKNTLYLQMNSLRAEDTAVYYCVKHGNFGNSYVSWFAYWGQGTLVTVSSASTKGPSVFPLAPCSRSTSESTAALGCLVKDYFPEPVTVSWNSGALTSGVHTFPAVLQSSGLYSLSSVVTVPSSSLGTKTYTCNVDHKPSNTKVDKRVESKYGPPCPPCPAPEAAGGPSVFLFPPKPKDTLMISRTPEVTCVVVDVSQEDPEVQFNWYVDGVEVHNAKTKPREEQFNSTYRVVSVLTVLHQDWLNGKEYKCKVSNKGLPSSIEKTISKAKGQPREPQVYTLPPSQEEMTKNQVSLTCLVKGFYPSDIAVEWESNGQPENNYKTTPPVLDSDGSFLLYSKLTVDKSRWQEGNVFSCSVMHEALHNHYTQKSLSLSLGK light chain, CD3 arm (CD3B217): QAVVTQEPSLTVSPGGTVTLTCRSSTGAVTTSNYANWVQQKPGQAPRGLIGGTNKRAPGTPARFSGSLLGGKAALTLSGAQPEDEAEYYCALWYSNLWVFGGGTKLTVLGQPKAAPSVTLFPPSSEELQANKATLVCLISDFYPGAVTVAWKADSSPVKAGVETTTPSKQSNNKYAASSYLSLTPEQWKSHRSYSCQVTHEGSTVEKTVAPTECS", "values": [{"measurement": "EC50 (read off the curve)", "setting": "[1]", "value": "~1", "unit": "µg/mL"}, {"measurement": "EC50 (read off the curve)", "setting": "[2]", "value": "~1", "unit": "µg/mL"}, {"measurement": "EC50 (read off the curve)", "setting": "[3]", "value": "~1", "unit": "µg/mL"}]}
{"binder": "PSMB49 (Fab, V domains shown, Fab; also called PSMM50; Fab of mAb PSMB121) VH: QVQLVQSGAEVKKPGSSVKVSCKASGGTFSSYAISWVRQAPGQGLEWMGGIIPIFGTANYAQKFQGRVTITADESTSTAYMELSSLRSEDTAVYYCARASRVWHASYGYLDYWGQGTLVTVSS VL: EIVLTQSPATLSLSPGERATLSCRASQSVSKWLAWYQQKPGQAPRLLIYDASNRATGIPARFSGSGSGTDFTLTISSLEPEDFAVYYCQQRFTAPWTFGQGTKVEIK", "values": [{"measurement": "EC50 (read off the curve)", "setting": "[4]", "value": "~0.2", "unit": "µg/mL"}]}
{"binder": "G11 (antibody, human IgG1, kappa, V domains shown, In-house phage-derived anti-CD3 control; also called GI) VH: EVQLLESGGGLVQPGGSLRLSCAASGFTFSSYGMSWVRQAPGKGLEWVSGINGGGGSKYYADSVKGRFTISRDNSKNTLYLQMNSLRAEDTAVYYCAKTSAQRFDYWGQGTLVTVSS VL: DIQMTQSPSSLSASVGDRVTITCRASQSISSYLNWYQQKPGAPKLLIYAASSLQSGVPSRFSGSGSGTDFTLTISSLQPEDFATYYCQQSYSLPLTFGQGTKVEIKR", "values": [{"measurement": "binding result", "setting": "[5]", "value": "no binding"}]}
